Measurements: publication PMC10182070, “Ligand dependent interaction between PC-TP and PPARδ mitigates diet-induced hepatic steatosis in male mice” (Nature Communications, 2023)
Residue numbers refer to the chain shown, from its start. Names and notes keep the numbering of the source.

T1: purified PPARδ ligand-binding domain (LBD), Cy5-labelled (human, Cy5 fluorophore (NHS) on lysine amines)
T1 chain: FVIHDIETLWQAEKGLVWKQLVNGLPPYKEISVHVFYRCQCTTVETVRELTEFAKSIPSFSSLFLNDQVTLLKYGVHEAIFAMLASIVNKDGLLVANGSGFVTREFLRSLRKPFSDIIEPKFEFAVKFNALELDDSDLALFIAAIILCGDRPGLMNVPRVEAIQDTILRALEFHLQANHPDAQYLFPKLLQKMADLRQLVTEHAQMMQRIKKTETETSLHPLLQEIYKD

T2: purified full-length PPARδ, Cy5-labelled (human, UniProt Q03181 1-441, Cy5 fluorophore (NHS) on lysine amines)
T2 construct: Full-length PPARδ in PSMT3 vector; also called FL-PPARδ; full-length (FL) PPARδ; source: E. coli BL21 DE3, purified (IMAC, Capto S and Capto Q, Superdex 75 SEC)
T2 sequence (looked up): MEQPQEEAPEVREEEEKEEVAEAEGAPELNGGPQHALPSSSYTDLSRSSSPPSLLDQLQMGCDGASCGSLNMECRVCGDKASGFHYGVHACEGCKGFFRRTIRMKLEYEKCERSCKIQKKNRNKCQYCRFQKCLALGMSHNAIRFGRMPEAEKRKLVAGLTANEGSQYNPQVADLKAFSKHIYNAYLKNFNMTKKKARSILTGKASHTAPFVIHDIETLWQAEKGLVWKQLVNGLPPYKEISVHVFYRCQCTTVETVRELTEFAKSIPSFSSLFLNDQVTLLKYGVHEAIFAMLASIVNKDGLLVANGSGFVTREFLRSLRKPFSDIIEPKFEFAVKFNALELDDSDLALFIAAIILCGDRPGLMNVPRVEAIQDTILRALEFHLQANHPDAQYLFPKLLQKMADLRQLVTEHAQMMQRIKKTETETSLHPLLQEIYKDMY

T3: full-length PPARδ, split nano-luciferase (nano-PCA) fusion (human, UniProt Q03181 1-441)
T3 construct: wild-type human PPARδ, printed as residues 1-470; The clones of the HEK293T screen are not described; also called FL-PPARδ; intact PPARδ; source: HEK293T (screen) and Huh7, transfected, in cells
T3 sequence (looked up): T2 sequence (looked up)

B1: purified PC-TP (natural protein, human)
chain: MELAAGSFSEEQFWEACAELQQPALAGADWQLLVETSGISIYRLLDKKTGLYEYKVFGVLEDCSPTLLADIYMDSDYRKQWDQYVKELYEQECNGETVVYWEVKYPFPMSNRDYVYLRQRRDLDMEGRKIHVILARSTSMPQLGERSGVIRVKQYKQSLAIESDGKKGSKVFMYYFDNPGGQIPSWLINWAAKNGVPNFLKDMARACQNYLKKT
notes: PC-TP coding region in pMCSG7; the structure of PC-TP solved here is PDB 7U9D; 0.01% soy lecithin was added to the cultures at induction; also called LTP; source: E. coli BL21 DE3, purified (IMAC, Superdex 75 SEC)
B2: PC-TP Y114R, split nano-luciferase (nano-PCA) fusion (natural protein, human, UniProt Q9UKL6 1-214, looked up)
chain: B1 chain with Y114R
notes: source: Huh7, transfected, in cells
B3: PC-TP R120H, split nano-luciferase (nano-PCA) fusion (natural protein, human, UniProt Q9UKL6 1-214, looked up)
chain: B1 chain with R120H
notes: as for B2
B4: PC-TP R78E, split nano-luciferase (nano-PCA) fusion (natural protein, human, UniProt Q9UKL6 1-214, looked up)
chain: B1 chain with R78E
notes: as for B2

Tests used:
[1] = molecular target: T1, purified PPARδ ligand-binding domain …
[2] = molecular target: T2, purified full-length PPARδ, Cy5-labelled; experiment: temperature related intensity change (TRIC); 50 nM Cy5-labelled FL-PPARδ or PPARδ LBD with LTPs (10 µM-610 pM), overnight at 4 °C; 20 mM Hepes pH 8.3, 200 mM NaCl, 5% glycerol, 0.05% tween-20, 0.5 mM TCEP; Dianthus NT.23 Pico; settings: both partners purified
[3] = molecular target: T3, full-length PPARδ, split …; experiment: split reporter (BiFC, NanoBiT); nano-PCA in transfected Huh7 cells (100 ng/well of each fusion); fresh culture media or DMEM F-12 with 0.5% serum (mutant panel in 0.5% serum); signal normalized to the highest negative control; settings: partners not purified

| Binder | Kd [1] [µM] | Kd [2] [µM] | percent decrease of the interaction relative to wild-type PC-TP [3] [%] |
| --- | --- | --- | --- |
| B1 | 4.23 | ~2.4 | – |
| B2 | – | – | ~45 |
| B3 | – | – | ~45 |
| B4 | – | – | ~45 |
